Experiments:
[1] = molecular target: the molecule itself; assay: SEC; calibrated Superdex 75 gel-filtration column; 25 mM MES, 0.2 M NaCl, 2 mM EDTA, 2 mM TCEP, 5% glycerol, pH 6, 25 °C
HlyU (VcHlyU), WT [2] = molecular target: T1, HlyU (VcHlyU), WT (Vibrio cholerae, UniProt P52695 1-108); assay: fluorescence anisotropy; reduced HlyU (TCEP), 100 mM NaCl; n=4; Table 1: 25 mM Hepes pH 7, 100 mM NaCl, 1 mM EDTA, 25 °C; Methods: 10 mM Hepes pH 7.0, 0.1 M NaCl, with or without 2 mM TCEP, 10 nM DNA; settings: protein: recombinant; chain copies: 2; label: 5'-fluorescein on strand 1; blunt
T1 sequence: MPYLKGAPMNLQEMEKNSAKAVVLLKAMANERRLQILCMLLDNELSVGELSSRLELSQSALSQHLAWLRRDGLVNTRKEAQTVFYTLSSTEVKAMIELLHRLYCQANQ

HlyU (VcHlyU), WT [3] = molecular target: T1, HlyU (VcHlyU), WT; assay: fluorescence anisotropy; HlyU pretreated with 5-fold H2O2; text: no change in affinity; n=3; Table 1: 25 mM Hepes pH 7, 100 mM NaCl, 1 mM EDTA, 25 °C; Methods: 10 mM Hepes pH 7.0, 0.1 M NaCl, with or without 2 mM TCEP, 10 nM DNA; settings: protein: recombinant; chain copies: 2; label: 5'-fluorescein on strand 1; blunt

B1: Vibrio cholerae HlyU (natural protein)
chain: MPYLKGAPMNLQEMEKNSAKAVVLLKAMANERRLQILCMLLDNELSVGELSSRLELSQSALSQHLAWLRRDGLVNTRKEAQTVFYTLSSTEVKAMIELLHRLYCQANQ
notes: also called VcHlyU; WT HlyU
B1 was tested, and the “stoichiometry N” value [1] was 2.

B2: hlyO operator (hlyA promoter) (dsDNA)
DNA 1: TATAAATTAATTCAGACTAAATTAGTTCAAA
DNA 2: TTTGAACTAATTTAGTCTGAATTAATTTATA
B2 was tested, and the Ka (HlyU (VcHlyU), WT [2]) was 0.4 ± 0.08 10^9 M^-1 and the Ka (HlyU (VcHlyU), WT [3]) was 0.19 ± 0.03 10^9 M^-1.

Reference: paper PMC10509353, “Increased intracellular persulfide levels attenuate HlyU-mediated hemolysin transcriptional activation in Vibrio cholerae” (The Journal of Biological Chemistry, 2023)
